Assay results from the RNAGym collection of RNA variant scans (doi:10.1073/pnas.2313332121).

B1: TPR t1 (parent)
chain: GACCAAUCUGCCCUCAGAGCUCGAGAACAUCUUCGGAUGCAGAGGAGGCAGGCUUCGGUGGCGCGAUAGCGCCAACGUCCUCAACCUCCAAUGCAUCCCACCACAUGAUGAUGCCUGAAGAGCCUUGGUUUUUUG

Variants of: B1
Test: polymerase ribozyme fitness, log enrichment relative to wild type (log ratio); higher = more active; in vitro selection for triplet polymerase activity
Method in brief: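 For each subunit of a heterodimeric triplet polymerase ribozyme, a mutant library was built by PCR and transcribed, then taken through a single in vitro selection round in triplicate. Selection involved annealing to a biotinylated primer, the partner subunit and triplets, incubation frozen at −7 °C, gel excision of extended constructs, capture on streptavidin beads and RT-PCR. Genotypes were retained after Illumina sequencing of inputs and outputs only with ≥10 input reads and ≥1 read in each output. Fitness is defined as the logarithm of a genotype's enrichment relative to wild-type enrichment, using inverse-variance-weighted averages across replicates, with the logarithm taken to base 2.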

Row | Variant | polymerase ribozyme fitness (log ratio)
1 | G35A G69C | -4.88
2 | G36A C72A C97U | 0.549
3 | A37U C70G C97U G117U | -5.65
4 | G36U C99U C124A | -3.03
5 | A37U C53U G58C A66U C76G U106C | -2.44
6 | C34U G52U U87G U112A G135C | -5.16
7 | C34G G63A | -7.1
8 | C34G G63U | -8.24
9 | G35A C88U C99A | -5.74
10 | A37C C40U U55C A91C | -3.28
11 | G35A C73A | -3.7
12 | G35A U59C U116G G122U C124G | -6.12
13 | A37C G61A C73U | -0.816
14 | G36C C53A C115U U116G | -4.36
15 | A37C G48C U54C G113A | -2.76
16 | G36U U54G G69A | -5.06
17 | G35C U129G | -6.04
18 | A37G C40U G51U C82G | -3.82
19 | G36U C101A U130C | -1.6
20 | G36U A111G U133G | -2.38
21 | G36C U87G U116A | -5.07

Row | Variant | polymerase ribozyme fitness (log ratio)
22 | C34A U87A A105G | -6.02
23 | G35U G58A C115U | -7.02
24 | C34G G61U C64U C99A G120A A121G | -5.39
25 | A37U A43G G60A | -2.78
26 | A37U C89A A95U C123A | -3
27 | A37G C64U C73G U109A | -6.41
28 | G36A G51U G120A | -3.42
29 | A37U A46U U131G | -2.61
30 | G36A C72G U92A | -5.43
31 | A37G C40U | -1.48
32 | A37C C49A G69U G77C C85A | -3.32
33 | A37U C97U | -2.15
34 | C34G G48U G122A | -7.95
35 | G36A G44U C72A C88A U106G G113C | -5.9
36 | G35U G44A U67C A105G U112A | -6.79
37 | C34A G71U A75G | -4.12
38 | A37C C85A G113C | -3.33
39 | G36U G58C G71C A91U G120U | -4.22
40 | C34U A95C | -5
41 | C34G C72U | -5.89
42 | G36A C62U C72U | -0.886

Row | Variant | polymerase ribozyme fitness (log ratio)
43 | G36A C89U C94G C114U | -5.66
44 | G35A A41C U54C C64A A84G C101U C123U | -7.59
45 | G35U A46G G69U C98A | -0.783
46 | G36C C70U | -1.72
47 | C34U C53U G61U G120A U132A | -3.26
48 | G36A U59A | -0.196
49 | A37G C56U | -0.0501
50 | G36A C70A | -2.23
51 | G35A A103G | -6.59
52 | A37G U55C C56A C88A | -4.55
53 | A37C G60U C101G | -1.57
54 | G36U C64U A119G | 0.0711
55 | G35A C72G | -2.69
56 | G35A C72U | -4.58
57 | C34A G113U | -5.39
58 | G36A C49G G93A A95G | -3.09
59 | G36C A66G C72U | -3.78
60 | C34U U112A | -2.99
61 | G36U G48A | -1.52
62 | G36U G48U | -2.23
63 | A37G C104U G113A U130G | -1.23

Row | Variant | polymerase ribozyme fitness (log ratio)
64 | G35C U87A | -5.04
65 | G36A C102A C104A G120U | -4.83
66 | G36C C40A | -1.42
67 | G36U A103G | -4.73
68 | G36U C72G C102U | -3.82
69 | C34A U59A C115U A118U | -6.82
70 | G36A U81A U125A | -2.6
71 | G36U C49U C64U G113A C115U G128U | -6.05
72 | G36U A46G | -0.974
73 | G35U G45A U81A C89A G120A | -4.73
74 | C34U G45C G69U C115G | -3.26
75 | C34U U133A | -4.62
76 | G36A G48U C56U U112A G117U G120U G127C U133A | -6.88
77 | A37C C56G U125A | -1.58
78 | G35U G61U | -5.28
79 | G36A C85G U131C | -2.08
80 | A37C U54G G57A | -1.35
81 | G35A U78C | -3.74
82 | C34G G63U C72U G110U | -8.01
83 | G36U C56U C104A | -2.85
84 | G35U G69U C79U | -3.35
